Assay results taken from article PMC6446838.

Experiments:
[1] = biological target: full-length KIF5B-GFP with C-terminal Strep-tag (human) (UniProt P33176)
[2] = biological target: K560-GFP with C-terminal Strep-tag, purified (human) (UniProt P33176)
Chain of K560-GFP with C-terminal Strep-tag, purified (human) (P33176 1-560): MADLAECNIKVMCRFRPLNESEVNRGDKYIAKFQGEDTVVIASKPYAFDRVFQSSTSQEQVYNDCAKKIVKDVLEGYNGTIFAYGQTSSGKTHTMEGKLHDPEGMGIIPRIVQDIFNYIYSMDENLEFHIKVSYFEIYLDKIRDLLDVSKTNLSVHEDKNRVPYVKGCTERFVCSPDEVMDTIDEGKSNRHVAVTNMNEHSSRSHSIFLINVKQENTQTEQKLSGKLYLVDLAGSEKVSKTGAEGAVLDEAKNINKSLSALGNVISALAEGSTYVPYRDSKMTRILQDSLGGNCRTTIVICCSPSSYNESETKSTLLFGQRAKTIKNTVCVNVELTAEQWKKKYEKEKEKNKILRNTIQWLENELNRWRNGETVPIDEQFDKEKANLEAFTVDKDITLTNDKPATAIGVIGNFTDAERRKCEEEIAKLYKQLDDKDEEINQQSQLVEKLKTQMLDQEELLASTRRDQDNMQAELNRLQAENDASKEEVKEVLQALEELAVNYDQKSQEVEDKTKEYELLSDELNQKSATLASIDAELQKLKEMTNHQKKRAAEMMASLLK

Chain of Alexa Fluor 647–labeled SNAP-tag-MAP7, full length (Q14244 whole entry): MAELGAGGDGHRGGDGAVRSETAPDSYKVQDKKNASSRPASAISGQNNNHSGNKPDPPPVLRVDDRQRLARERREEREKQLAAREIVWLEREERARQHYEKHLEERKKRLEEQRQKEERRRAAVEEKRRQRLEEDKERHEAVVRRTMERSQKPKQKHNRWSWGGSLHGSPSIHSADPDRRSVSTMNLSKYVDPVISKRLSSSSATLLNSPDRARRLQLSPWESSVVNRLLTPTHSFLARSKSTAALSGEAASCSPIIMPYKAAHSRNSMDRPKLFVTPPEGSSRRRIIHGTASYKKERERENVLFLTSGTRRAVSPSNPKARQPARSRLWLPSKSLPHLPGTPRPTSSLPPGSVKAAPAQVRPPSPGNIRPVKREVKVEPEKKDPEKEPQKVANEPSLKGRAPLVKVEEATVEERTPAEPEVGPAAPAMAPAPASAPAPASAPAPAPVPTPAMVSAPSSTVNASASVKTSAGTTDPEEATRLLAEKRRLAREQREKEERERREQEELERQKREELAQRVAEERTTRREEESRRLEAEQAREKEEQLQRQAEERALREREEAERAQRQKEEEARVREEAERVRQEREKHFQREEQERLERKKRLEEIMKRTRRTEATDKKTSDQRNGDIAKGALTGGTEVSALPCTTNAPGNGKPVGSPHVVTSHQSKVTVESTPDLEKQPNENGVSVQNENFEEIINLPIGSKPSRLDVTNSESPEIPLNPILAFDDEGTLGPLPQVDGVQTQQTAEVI
Chain of full-length KIF5B-GFP with C-terminal Strep-tag (human) (P33176 whole entry): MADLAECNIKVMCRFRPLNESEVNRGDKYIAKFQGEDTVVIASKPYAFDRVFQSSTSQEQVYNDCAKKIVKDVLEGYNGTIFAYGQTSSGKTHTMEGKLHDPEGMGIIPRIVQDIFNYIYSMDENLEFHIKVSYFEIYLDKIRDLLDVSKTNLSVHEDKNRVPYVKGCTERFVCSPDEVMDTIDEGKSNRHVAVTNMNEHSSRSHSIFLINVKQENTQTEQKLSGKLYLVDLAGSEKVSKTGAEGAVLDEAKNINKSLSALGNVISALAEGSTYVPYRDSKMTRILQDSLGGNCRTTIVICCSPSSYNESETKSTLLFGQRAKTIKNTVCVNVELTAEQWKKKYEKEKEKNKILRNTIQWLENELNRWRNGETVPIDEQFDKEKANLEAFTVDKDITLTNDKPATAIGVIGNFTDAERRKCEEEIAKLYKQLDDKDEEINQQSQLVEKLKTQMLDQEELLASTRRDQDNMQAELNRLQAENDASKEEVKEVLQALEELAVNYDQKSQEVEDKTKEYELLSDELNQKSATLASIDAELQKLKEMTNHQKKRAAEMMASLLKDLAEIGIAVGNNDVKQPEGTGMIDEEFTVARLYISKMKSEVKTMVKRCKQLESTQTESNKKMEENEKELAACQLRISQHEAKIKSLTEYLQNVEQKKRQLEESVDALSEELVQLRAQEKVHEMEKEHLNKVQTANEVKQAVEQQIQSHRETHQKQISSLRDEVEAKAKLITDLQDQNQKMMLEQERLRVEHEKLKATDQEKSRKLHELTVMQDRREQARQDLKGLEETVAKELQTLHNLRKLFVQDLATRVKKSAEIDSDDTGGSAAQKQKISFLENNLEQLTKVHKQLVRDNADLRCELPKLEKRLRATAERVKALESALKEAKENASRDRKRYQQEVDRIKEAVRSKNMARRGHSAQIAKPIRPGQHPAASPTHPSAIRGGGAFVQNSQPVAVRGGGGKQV

events of full-length KIF5B-GFP on dynamic MTs in vitro (short binding events and landing followed by processive movement), with MAP against kinesin alone [1]: > 60 fold
run length of full-length KIF5B-GFP on dynamic MTs in vitro, with MAP against kinesin alone [1]: 1.6 fold
landing frequency of K560-GFP on MAP-decorated dynamic MTs in vitro, increasing MAP concentrations, against K560 alone [2]: < 23.6 fold
processivity (run length) of K560-GFP on dynamic MTs in vitro [2]: 2 fold
Substance: Alexa Fluor 647–labeled SNAP-tag-MAP7, full length (from UniProt Q14244 1-749) (natural protein)
